Experimental findings from patent publication US20180094055A1 (Amgen, published 2018) are described below.

Assay [1] addresses T1, human pituitary adenylate cyclase-activating polypeptide type I receptor, endogenously expressed on SH-SY-5Y … (human, UniProt P41586 21-468).
T1 sequence (looked up): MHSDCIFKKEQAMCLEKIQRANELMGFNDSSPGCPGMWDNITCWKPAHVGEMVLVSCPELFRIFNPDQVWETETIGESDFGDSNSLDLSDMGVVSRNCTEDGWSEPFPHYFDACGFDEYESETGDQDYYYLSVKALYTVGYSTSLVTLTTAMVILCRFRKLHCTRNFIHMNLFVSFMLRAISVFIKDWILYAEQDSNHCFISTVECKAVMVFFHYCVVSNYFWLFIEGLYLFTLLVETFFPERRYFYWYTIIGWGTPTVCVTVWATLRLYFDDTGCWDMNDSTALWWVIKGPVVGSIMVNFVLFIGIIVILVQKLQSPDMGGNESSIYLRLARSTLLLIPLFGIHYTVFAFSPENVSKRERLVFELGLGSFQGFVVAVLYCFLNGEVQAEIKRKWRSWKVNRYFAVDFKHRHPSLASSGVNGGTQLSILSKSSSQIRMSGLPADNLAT
Briefly: cell-based or functional assay.

In assay [2] the target is T2, human PAC1 (form used for the Kd determination not stated) (human, UniProt P41586 21-468, limits assumed).
T2 construct: also called hPAC1
T2 sequence (looked up): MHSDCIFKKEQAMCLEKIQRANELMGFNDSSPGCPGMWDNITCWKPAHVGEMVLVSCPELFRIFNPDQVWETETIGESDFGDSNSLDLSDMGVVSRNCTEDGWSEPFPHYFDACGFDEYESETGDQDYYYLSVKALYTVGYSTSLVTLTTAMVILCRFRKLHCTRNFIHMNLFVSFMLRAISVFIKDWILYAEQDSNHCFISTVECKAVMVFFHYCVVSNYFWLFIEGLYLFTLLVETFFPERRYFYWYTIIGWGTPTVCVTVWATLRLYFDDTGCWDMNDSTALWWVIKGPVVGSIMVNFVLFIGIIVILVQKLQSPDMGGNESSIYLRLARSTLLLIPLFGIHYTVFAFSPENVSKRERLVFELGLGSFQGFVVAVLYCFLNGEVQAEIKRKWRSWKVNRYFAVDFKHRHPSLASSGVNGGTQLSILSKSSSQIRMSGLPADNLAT
Briefly: method not described (Table 8, 'Kd (nM)').

As usually defined, the Kd is the free concentration of one partner at which half of the binding sites on the other are occupied at equilibrium, for simple one-to-one binding. A low value points to higher affinity.

B1: Anti-hPAC1 antibody W (antibody, human IgG2, kappa, V domains shown)
VH: QVQLQESGPGLVKPSQTLSLTCTVSGGSISSGGYYWSWIRQHPGKGLEWIGYIYYSGNTYYNPSLKSRVTISGDTSKNQFSLKLRSVTAADTAVYYCTRGGAARGMDVWGQGTTVTVSS
VL: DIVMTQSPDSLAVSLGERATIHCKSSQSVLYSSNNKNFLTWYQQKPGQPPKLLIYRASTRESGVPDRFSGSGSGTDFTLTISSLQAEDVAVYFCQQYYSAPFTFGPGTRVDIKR
notes: also called Ab ID W
Turning to B1, the “Antagonist IC50 (nM), PAC1 mediated cAMP assay (LANCE), PACAP-38 1 nM stimulation” value in assay [1] was found to be 28 nM. In assay [2], the equilibrium dissociation constant (Kd) stood at 0.189 nM.

B2: Anti-hPAC1 antibody L (antibody, human IgG2, kappa, V domains shown)
VH: QVQLVESGGGVVQPGRSLRLSCAASGFTFSRYAMHWVRQASGKGLEWVAVISYDGSNKYYADSVKGRFTISRDNSKNTLYLLMSSLRAEDTAVFYCARGYDILTGYPDYWGQGTLVTVSS
VL: DIQLTQSPSFLSASVGDRVTITCRASQSIGRSLHWYQQKPGKAPKLLFKYASQSLSGVPSRFSGSGSGTEFTLTISSLQPEDFATYYCHQSSRLPFTFGPGTKVDIKR
notes: also called Ab ID L
In the case of B2, in assay [1], the “Antagonist IC50 (nM), PAC1 mediated cAMP assay (LANCE), PACAP-38 1 nM stimulation” value turned out to be 4 nM. Also, in assay [2], the Kd is 0.024 nM.
